The values below are quoted from earlier work in publication PMC2517140.

The target in the data set is gp41 trimeric inner core (Human immunodeficiency virus 1) (UniProt O70902).

As usually defined, the Kd is the constant that tells how readily two partners part at equilibrium. Regarding “gp41 outer-layer peptide (from UniProt O70902)”, the Kd was 1 nM.
